# Test results: article PMC11915744
# Biological target: NS1 used in the SPR assay (UniProt P03496)
# Assay: SPR
# Sequence of UniProt P03496 (P03496 whole entry): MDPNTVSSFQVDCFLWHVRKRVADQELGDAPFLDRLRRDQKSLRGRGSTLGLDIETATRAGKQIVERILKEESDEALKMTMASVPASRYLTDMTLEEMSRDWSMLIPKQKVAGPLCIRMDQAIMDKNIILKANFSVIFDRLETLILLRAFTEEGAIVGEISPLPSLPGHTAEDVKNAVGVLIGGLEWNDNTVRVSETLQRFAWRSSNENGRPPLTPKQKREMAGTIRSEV
substance,measurement,value
hnRNPH1 used in the SPR assay (from UniProt P31943 1-449) (natural protein),Kd,10.4 µM
